Measured values: US12497460B2, “Anti-MSR1 antibodies and methods of use thereof” (REGENERON PHARMACEUTICALS, INC., priority 2018, dated 2025)

What was measured:
[1] = target: T1, Ox-LDL binding to His9-hMSR1 (Homo sapiens, UniProt P21757); assay: Competition sandwich ELISA, blocking of Ox-LDL binding; conditions: antibody 500 nM, Ox-LDL 10 nM
T1 construct: human MSR1 extracellular domain expressed with a N-terminal nonahistidine tag; His9 (nonahistidine) (N); purchased R&D Systems 2708-MS
T1 sequence (P21757 77-451 limits assumed): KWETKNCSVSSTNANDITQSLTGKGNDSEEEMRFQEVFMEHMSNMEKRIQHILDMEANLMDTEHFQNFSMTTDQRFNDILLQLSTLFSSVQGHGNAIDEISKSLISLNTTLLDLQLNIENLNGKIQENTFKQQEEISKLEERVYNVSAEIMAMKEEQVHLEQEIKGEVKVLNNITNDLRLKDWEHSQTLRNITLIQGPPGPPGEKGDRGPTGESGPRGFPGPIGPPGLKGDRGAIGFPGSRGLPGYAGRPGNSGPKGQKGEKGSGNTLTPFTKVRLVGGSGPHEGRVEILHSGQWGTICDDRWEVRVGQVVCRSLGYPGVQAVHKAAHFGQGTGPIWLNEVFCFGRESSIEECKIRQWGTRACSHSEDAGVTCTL
Procedure: The ability of anti-MSR1 antibodies disclosed herein to block the binding of various ligands to human MSR1 was measured using three competition sandwich ELISA assays. The ligands used in the assays were: (1) acetylated LDL (Ac-LDL), (2) oxidized LDL (Ox-LDL), and (3) advanced glycation end-products of bovine serum albumin (AGE-BSA).
Anti-MSR1 antibodies or isotype control antibodies were serially diluted as appropriate for each tested ligand and added in duplicate for each serial dilution set to microtiter plates coated with His9-hMSR1. Buffer alone was also added to wells on each coat. […] This assay was conducted in four different assay runs.
Data analysis was performed using a sigmoidal dose-response model within Prism™ software (GraphPad). Percent blockade at maximum concentration of the antibody tested in each assay was calculated as an indicator of the ability of the antibodies to block the binding of Ac-LDL, Ox-LDL or biot-AGE-BSA to His9-hMSR1 on the plate relative to the baseline of the assay. In the calculation, binding signal of the same concentrations of Ac-LDL, Ox-LDL, or biot-AGE-BSA used for the assays in the absence of antibody was referenced as 100% binding or 0% blocking, while the baseline of the assay, defined as binding signal of the sample of buffer without MSR1 ligands or antibody, was referenced as 0% binding or 100% blocking. The maximum percent blockade at the highest concentration of antibody tested in each assay are reported for all antibodies.

[2] = target: T2, His9-mMSR1 (mouse MSR1 extracellular domain) (Mus musculus, UniProt P30204); assay: OCTET bio-layer interferometry binding kinetics of anti-MSR1 mAbs; conditions: 25° C., antibody-capture format, analyte His9-mMSR1; for kd: * = no dissociation observed, kd manually fixed at 5.00E−05; for t½: dissociative half-life
T2 construct: mouse MSR1 extracellular domain expressed with a N-terminal nonahistidine tag; His9 (nonahistidine) (N); purchased R&D Systems 1797-MS
T2 sequence (P30204 79-458 limits assumed): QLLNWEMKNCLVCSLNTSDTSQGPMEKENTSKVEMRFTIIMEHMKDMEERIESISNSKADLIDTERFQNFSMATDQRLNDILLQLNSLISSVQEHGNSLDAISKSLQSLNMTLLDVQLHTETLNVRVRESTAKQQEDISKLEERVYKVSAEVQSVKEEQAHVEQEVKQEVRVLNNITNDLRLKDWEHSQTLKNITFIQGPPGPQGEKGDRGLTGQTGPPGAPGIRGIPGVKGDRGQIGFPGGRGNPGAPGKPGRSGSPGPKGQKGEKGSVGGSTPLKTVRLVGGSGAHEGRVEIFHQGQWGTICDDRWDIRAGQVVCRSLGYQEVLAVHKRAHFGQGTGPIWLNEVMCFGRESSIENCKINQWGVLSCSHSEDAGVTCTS
Procedure: Binding affinities and kinetic constants of human anti-MSR1 antibodies for different MSR1 reagents were determined using a real time, label-free bio-layer interferometry assay on an OCTET® HTX biosensor platform (Pall FortéBio Corp., Menlo Park, CA). The experiment was performed at 25° C. in 10 mM HEPES, 150 mM NaCl, 3 mM EDTA, 0.05% v/v Surfactant Tween-20, and 1 mg/mL BSA, pH7.4 (HBS-EBT) buffer with the plate shaking at the speed of 1000 rpm. Binding studies were performed on human MSR1 extracellular domain expressed with a N-terminal nonahistidine tag (His9-hMSR1; R&D Systems, Cat #2708-MS), monkey MSR1 extracellular domain expressed with a N-terminal myc-myc-hexahistidine tag (HMM-mfMSR1; SEQ ID NO: 418), and mouse MSR1 extracellular domain expressed with a N-terminal nonahistidine tag (His9-mMSR1; R&D Systems, Cat #1797-MS). The anti-MSR1 monoclonal antibodies were captured by dipping either anti-human Fc (AHC) or anti-mouse Fc (AMC) Octet biosensors in wells containing 5 μg/mL or 10 μg/mL of anti-MSR1 monoclonal antibody for 45-90 seconds. The AHC captured anti-MSR1 monoclonal antibodies were then dipped in wells containing 50 nM of His9-mMSR1, while the AMC captured anti-MSR1 monoclonal antibodies were dipped in wells containing different concentrations of His9-hMSR1 or HMM-mfMSR1 (100 nM, 25 nM) or 100 nM His9-mMSR1. The binding of different MSR1 reagents to the captured anti-MSR1 monoclonal antibody was measured for 4 minutes and the dissociation of monoclonal antibody bound MSR1 reagent was monitored for 8-10 minutes in HBS-EBT buffer.
The association rate (ka) and dissociation rate (kd) were determined by fitting the real-time binding sensorgrams to a 1:1 binding model with mass transport limitation using Scrubber 2.0c curve-fitting software. Binding dissociation equilibrium constant (KD) and dissociative half-life (t½) were calculated from the kinetic rates as: […]
Binding kinetics parameters for His9-hMSR1, HMM-mfMSR1 or His9-mMSR1 binding to different anti-MSR1 monoclonal antibodies of the invention at 25° C. are shown in Tables 8 and 9.

Msr1^hu/hu ApoE^−/− mice = assay: In vivo LPS-induced cytokine production in serum; set-up: species or system mouse; conditions: i.p. dosing 24 hours before LPS challenge; 2 hours post LPS challenge

Row | Molecule | anti-MSR1 antibody blocking of Ox-LDL binding to His9-hMSR1 % Blocking [1] [%] | Kd [2] [nM] | ka [2] [M⁻¹ s⁻¹] | kd [2] [s⁻¹] | t½ [2] [min] | effect on in vivo LPS-induced cytokine production in serum (Msr1^hu/hu ApoE^−/− mice)
1 | H1H21227N-N297Q: "modified versions of 21227N (H1H21227N-N297Q and H1H21227N-N297D)"; anti-MSR1 antibody "with a N297Q single point mutation" (antibody, V domains shown) VH: QVQLVQSGAEVKKPGASVKVSCKVSGYTLTELSIHWVRQVPGKGLEWMGGFDPEEGETIFAQEFRDRVTLTEDTSPDTAYMELSSLKSEDAAVYYCTTPRYCNNGICYDYWGQGTLVTVSS VL: DIQMTQSPSSLSASVGDRVTITCRASQSISNYLNWYQQKPGKAPKLLIYTASSLQSGVPSRFSGSGSGTDFTLTISSLQTEDFATYYCQQSYSNFPITFGQGTRLEIKR | 97 | 1.89 | 374000 | 0.000708 | 16 | –
2 | H1H21227N-N297D: "The 21227N antibody was also produced as a third version with a N297D mutation" (antibody, V domains shown) VH: QVQLVQSGAEVKKPGASVKVSCKVSGYTLTELSIHWVRQVPGKGLEWMGGFDPEEGETIFAQEFRDRVTLTEDTSPDTAYMELSSLKSEDAAVYYCTTPRYCNNGICYDYWGQGTLVTVSS VL: DIQMTQSPSSLSASVGDRVTITCRASQSISNYLNWYQQKPGKAPKLLIYTASSLQSGVPSRFSGSGSGTDFTLTISSLQTEDFATYYCQQSYSNFPITFGQGTRLEIKR | 99 | 1.71 | 461000 | 0.000786 | 15 | –
3 | H1H21231N: "anti-MSR1 antibodies ... (21227N, 21231N, 21234N) were produced with the original human Fcγ portion"; "H1H" = human IgG1 Fc (antibody, V domains shown, human IgG1 Fc, "anti-MSR1 antibodies ; (21227N, 21231N, 21234N) were produced with the original human Fcγ portion"; "H1H" = human IgG1 Fc) VH: EVQLVESGGGLVQPGGSLRLSCAASGFTFSDHYMDWVRQAPGKGLEWVGRTRNKANSHTTEYTASVTGRFTISRDDSRNSLYLQMNSLKTEDTAVYYCVRAGIIGTLFDYWGQGTLVTVSS VL: DIQMTQFPSSLSASVGDRVTITCRASQSISSFLNWFQQKPGKAPKFLIYAASSLQSGVPSRFSGSGSGTDFTLTISSLQPEDFATYYCQQSYSSPPITFGQGTRLEIKR | 22 | – | – | – | – | –
4 | H1H21231N-N297Q: modified version of "21231N (H1H21231N-N297Q) anti-MSR1 antibodies" with "a N297Q single point mutation" (antibody, V domains shown) VH: EVQLVESGGGLVQPGGSLRLSCAASGFTFSDHYMDWVRQAPGKGLEWVGRTRNKANSHTTEYTASVTGRFTISRDDSRNSLYLQMNSLKTEDTAVYYCVRAGIIGTLFDYWGQGTLVTVSS VL: DIQMTQFPSSLSASVGDRVTITCRASQSISSFLNWFQQKPGKAPKFLIYAASSLQSGVPSRFSGSGSGTDFTLTISSLQPEDFATYYCQQSYSSPPITFGQGTRLEIKR | 26 | – | – | – | – | –
5 | H1H21227N: "anti-MSR1 antibodies ... (21227N, 21231N, 21234N) were produced with the original human Fcγ portion"; "H1H" = human IgG1 Fc (antibody, V domains shown, human IgG1 Fc, "anti-MSR1 antibodies ; (21227N, 21231N, 21234N) were produced with the original human Fcγ portion"; "H1H" = human IgG1 Fc) VH: QVQLVQSGAEVKKPGASVKVSCKVSGYTLTELSIHWVRQVPGKGLEWMGGFDPEEGETIFAQEFRDRVTLTEDTSPDTAYMELSSLKSEDAAVYYCTTPRYCNNGICYDYWGQGTLVTVSS VL: DIQMTQSPSSLSASVGDRVTITCRASQSISNYLNWYQQKPGKAPKLLIYTASSLQSGVPSRFSGSGSGTDFTLTISSLQTEDFATYYCQQSYSNFPITFGQGTRLEIKR | 100 | 1.97 | 415000 | 0.000816 | 14 | –
6 | H1H21234N-N297Q-LP13 (conjugate) VH: QVQLQESGPGLVKPSETLSLTCTVTGGSISRNYWSWIRQPPGKGLEWIGYIYYSGSIDYNPSLKSRVTISVDTSKNQFSLKLSSMTAADTAVYYCARDRWNWKYGMDVWGQGTTVIVSS VL: EIVLTQSPGTLSLSPGERATLSCRASQTVRNNYLAWYHQKPGQAPRLLIYGASSRATGIPDRFSGSGSGTDFTLTISRLEPEDFTVYYCHQYGNSPWTFGQGTKMEIKR | – | – | – | – | – | efficacious in inhibiting in vivo LPS-induced cytokine production in a dose-dependent manner
